Measurements as given in PMC11321312.

Columns and labels:
[1] = biological target: JGFN4 wild-type VHH (camelid (library from B cells of llamas and alpacas)); experiment: crystal structure; crystals grown from the isolated monomeric species (~12 mg/ml) with 5-fold molar excess of fentanyl; sitting drop, ambient temperature
[2] = biological target: JGFN4 wild-type VHH (camelid (library from B cells of llamas and alpacas)); experiment: crystal structure; crystals grown from the isolated (preformed) dimeric species (~12 mg/ml) with 5-fold molar excess of fentanyl; sitting drop, ambient temperature
[3] = biological target: JGFN4 N76D VHH (camelid (library from B cells of llamas and alpacas)); experiment: as above

stoichiometry N [1]	stoichiometry N [2]	stoichiometry N [3]	Binder
2	2	–	JGFN4 wild-type VHH (VHH) VHH: QVQLVESGGGLAQAGGSLQLSCAASGSTSRVNAMGWYRQTPGKERELVAAIDRSGATVYSESVRGRFTISKNDAKNIVWLQMNNLTTEDTAVYYCRSGVLGSWGLGTQVTVSS
–	–	2	JGFN4 N76D VHH (VHH) VHH: QVQLVESGGGLAQAGGSLQLSCAASGSTSRVNAMGWYRQTPGKERELVAAIDRSGATVYSESVRGRFTISKNDAKDIVWLQMNNLTTEDTAVYYCRSGVLGSWGLGTQVTVSS
